US12590147 (OBLIQUE THERAPEUTICS, dated 2026)
Changes are numbered by the printed parent chain.

Tests used:
OTV5-KLH [1] = target: T1, OTV5-KLH (human; keyhole limpet, (Pra-) at the N-terminus; C-terminal amide (-CONH2); cyclic; conjugated to the carrier via N-terminal Cys as stated in Example 4 ; chain 1: propargyl group (Pra-) on the N-terminus before Cys1, not …); experiment: monoclonal phage ELISA, replicate 2
T1 peptide: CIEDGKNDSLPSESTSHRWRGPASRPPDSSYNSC
Experimental: (§1) Single *E. coli* clones were picked randomly selected during the biopanning step and cultured. Supernatants containing phage were prepared and purified. ELISA plates were coated with antigens conjugated to carriers or carriers alone (control), followed by washing, blocking, washing and addition of purified phage. After additional washing, bound phage was detected using anti-phage-HRP antibody.
(§2) This example describes the production of a monoclonal antibody by phage display. The phage library used in this case was a commercially available human naïve LiAb-Fab library (high diversity of 2×10E^10 variants). After 4 rounds of biopanning and ELISA tests, 80 clones were selected and 5 different sequences were identified within this group of phage clones, represented by R4P1-C1, #1, #2, #3, and #4. Each of these phage clones were tested by ELISA for binding to each of the individual peptides OTV3, OTV4, and OTV5 each coupled to either BSA, OVA or KLH (a total of 9 peptide-conjugates). This is an important confirmation step to ensure clone specificity because due to their nature phages can sometimes bind unspecifically. In the ELISA tests (monoclonal phage ELISA tests) one phage Fab clone, R4P1-C1, bound specifically and strongly to all three of the peptides (all nine of the peptide-carrier conjugates), whereas the other phage Fab clones appeared to be non-specific binders (see Table GG below, all phages were tested at the same concentration).

OTV3-BSA [2] = target: T2, OTV3-BSA (human; bovine, conjugated to the carrier via N-terminal Cys); experiment: monoclonal phage ELISA, replicate 2
T2 sequence (P02769 25-607 limits assumed): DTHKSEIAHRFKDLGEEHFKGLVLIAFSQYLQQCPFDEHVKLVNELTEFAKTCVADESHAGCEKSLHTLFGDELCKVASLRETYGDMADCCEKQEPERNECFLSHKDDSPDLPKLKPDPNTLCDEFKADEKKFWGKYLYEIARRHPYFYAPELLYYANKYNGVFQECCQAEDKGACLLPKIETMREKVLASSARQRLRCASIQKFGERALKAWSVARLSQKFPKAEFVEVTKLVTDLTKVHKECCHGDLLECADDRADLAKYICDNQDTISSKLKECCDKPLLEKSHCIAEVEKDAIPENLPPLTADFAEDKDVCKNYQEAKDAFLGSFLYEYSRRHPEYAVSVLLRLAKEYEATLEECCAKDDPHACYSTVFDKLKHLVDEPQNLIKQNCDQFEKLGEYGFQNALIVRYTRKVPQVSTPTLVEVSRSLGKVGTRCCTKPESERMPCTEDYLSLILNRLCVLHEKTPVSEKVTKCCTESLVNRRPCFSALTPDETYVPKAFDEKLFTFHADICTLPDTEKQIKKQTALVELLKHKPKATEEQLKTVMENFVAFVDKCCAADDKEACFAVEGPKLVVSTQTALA
Experimental: as §1, §2

OTV3-KLH [3] = target: T3, OTV3-KLH (human; keyhole limpet, conjugated to the carrier via N-terminal Cys ; chain 1 pos 1: Cys chemically coupled to the KLH carrier (written C); linear peptide); experiment: monoclonal phage ELISA, replicate 2
T3 peptide: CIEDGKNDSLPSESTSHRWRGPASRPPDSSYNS
Experimental: as §1, §2

OTV4-OVA [4] = target: T4, OTV4-OVA (human, UniProt P01012 2-386 (chicken entry), conjugated to the carrier via N-terminal Cys); experiment: monoclonal phage ELISA, replicate 2
T4 sequence (peptide): T3 peptide with S24C
T4 sequence: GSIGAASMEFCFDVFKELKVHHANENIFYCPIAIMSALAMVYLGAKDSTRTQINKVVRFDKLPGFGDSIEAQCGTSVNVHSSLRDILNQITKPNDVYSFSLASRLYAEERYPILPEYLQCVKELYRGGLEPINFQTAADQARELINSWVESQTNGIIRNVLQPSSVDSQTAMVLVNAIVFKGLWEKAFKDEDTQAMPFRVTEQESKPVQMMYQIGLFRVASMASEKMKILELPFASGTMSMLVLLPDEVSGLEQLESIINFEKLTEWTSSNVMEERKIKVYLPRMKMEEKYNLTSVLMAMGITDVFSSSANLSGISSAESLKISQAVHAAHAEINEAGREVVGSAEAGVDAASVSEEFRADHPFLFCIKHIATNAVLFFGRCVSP
Experimental: as §1, §2

OTV4-BSA [5] = target: T5, OTV4-BSA (human; bovine, conjugated to the carrier via N-terminal Cys); experiment: monoclonal phage ELISA, replicate 2
T5 sequence (P02769 25-607 limits assumed): as the sequence (P02769 25-607 limits assumed) above
Experimental: as §1, §2

OTV3-OVA [6] = target: T6, OTV3-OVA (human, UniProt P01012 2-386 (chicken entry), conjugated to the carrier via N-terminal Cys); experiment: monoclonal phage ELISA, replicate 2
T6 sequence (peptide): T3 peptide
T6 sequence: T4 sequence
Experimental: as §1, §2

OTV5-OVA [7] = target: T7, OTV5-OVA (human, UniProt P01012 2-386 (chicken entry), (Pra-) at the N-terminus; C-terminal amide (-CONH2); cyclic; conjugated to the carrier via N-terminal Cys as stated in Example 4); experiment: monoclonal phage ELISA, replicate 2
T7 sequence (peptide): T1 peptide
T7 sequence: T4 sequence
Experimental: as §1, §2

OTV5-BSA [8] = target: T8, OTV5-BSA (human; bovine, (Pra-) at the N-terminus; C-terminal amide (-CONH2); cyclic; conjugated to the carrier via N-terminal Cys as stated in Example 4); experiment: monoclonal phage ELISA, replicate 2
T8 sequence (P02769 25-607 limits assumed): as the sequence (P02769 25-607 limits assumed) above
Experimental: as §1, §2

OTV4-KLH [9] = target: T9, OTV4-KLH (human; keyhole limpet, conjugated to the carrier via N-terminal Cys ; chain 1 pos 1: Cys chemically coupled to the KLH carrier (written C); linear peptide); experiment: monoclonal phage ELISA, replicate 2
T9 peptide: T3 peptide with S24C
Experimental: as §1, §2

OTV5-KLH [10] = target: T1, OTV5-KLH; experiment: monoclonal phage ELISA, replicate 1
Experimental: as §1, §2

OTV3-BSA [11] = target: T2, OTV3-BSA; experiment: monoclonal phage ELISA, replicate 1
Experimental: as §1, §2

OTV3-KLH [12] = target: T3, OTV3-KLH; experiment: monoclonal phage ELISA, replicate 1
Experimental: as §1, §2

OTV4-OVA [13] = target: T4, OTV4-OVA; experiment: monoclonal phage ELISA, replicate 1
Experimental: as §1, §2

OTV4-BSA [14] = target: T5, OTV4-BSA; experiment: monoclonal phage ELISA, replicate 1
Experimental: as §1, §2

OTV3-OVA [15] = target: T6, OTV3-OVA; experiment: monoclonal phage ELISA, replicate 1
Experimental: as §1, §2

OTV5-OVA [16] = target: T7, OTV5-OVA; experiment: monoclonal phage ELISA, replicate 1
Experimental: as §1, §2

OTV5-BSA [17] = target: T8, OTV5-BSA; experiment: monoclonal phage ELISA, replicate 1
Experimental: as §1, §2

OTV4-KLH [18] = target: T9, OTV4-KLH; experiment: monoclonal phage ELISA, replicate 1
Experimental: as §1, §2

B1: R4P1-C1 (phage Fab clone) (Fab, V domains shown)
VH: QVQLQQSGPGLVKPSQTLSLTCAISGDSVSSNSAAWNWIRQSPSRGLEWLGRTYYRSKWYNDYAVSVKSRITINPDTSKNQFSLQLNSVTPEDTAVYYCARDDYDPVGMYAFDIWGQGTLVTVSS
VL: LPVLTQPPSASGTPGQRVTISCSGSSSNIGSNTVNWYQQLPGTAPKLLIYRNTQRPSGVPDRFSGSKSGTSASLAISGLQSEDEADYYCEAWDDSMRGAAFGGGTQLTVL
notes: also called phage clone R4P1-C1
**Q.** How did the ELISA signal (OTV5-KLH [1]) turn out when B1 was run?
**A.** The ELISA signal was 2.58.

**Q.** What about the ELISA signal (OTV3-BSA [2]) of the same binder?
**A.** The ELISA signal was 2.65.

**Q.** What about the ELISA signal (OTV3-KLH [3]) of the same binder?
**A.** Its ELISA signal is 2.94.

**Q.** And the ELISA signal (OTV4-OVA [4])?
**A.** The ELISA signal was 2.78.

**Q.** What about the ELISA signal (OTV4-BSA [5]) of the same binder?
**A.** The ELISA signal was 2.8.

**Q.** What about the ELISA signal (OTV3-OVA [6]) of the same binder?
**A.** Its ELISA signal is 2.72.

**Q.** And the ELISA signal (OTV5-OVA [7])?
**A.** Its ELISA signal is 2.49.

**Q.** And the ELISA signal (OTV5-BSA [8])?
**A.** The ELISA signal was 2.56.

**Q.** What about the ELISA signal (OTV4-KLH [9]) of the same binder?
**A.** The ELISA signal was 2.51.

**Q.** What about the ELISA signal (OTV5-KLH [10]) of the same binder?
**A.** Its ELISA signal is 2.74.

**Q.** And the ELISA signal (OTV3-BSA [11])?
**A.** The ELISA signal was 2.87.

**Q.** And the ELISA signal (OTV3-KLH [12])?
**A.** Its ELISA signal is 3.13.

**Q.** And the ELISA signal (OTV4-OVA [13])?
**A.** The ELISA signal was 2.84.

**Q.** What about the ELISA signal (OTV4-BSA [14]) of the same binder?
**A.** The ELISA signal was 2.95.

**Q.** What about the ELISA signal (OTV3-OVA [15]) of the same binder?
**A.** Its ELISA signal is 2.85.

**Q.** What about the ELISA signal (OTV5-OVA [16]) of the same binder?
**A.** Its ELISA signal is 2.61.

**Q.** What about the ELISA signal (OTV5-BSA [17]) of the same binder?
**A.** Its ELISA signal is 2.63.

**Q.** What about the ELISA signal (OTV4-KLH [18]) of the same binder?
**A.** The ELISA signal was 2.81.
